The values that follow are results of earlier work, collected in PMC3078175.

The target in the data set is IL-17RB (Homo sapiens) (UniProt Q9NRM6).
Chain of UniProt Q9NRM6 (Q9NRM6 18-292): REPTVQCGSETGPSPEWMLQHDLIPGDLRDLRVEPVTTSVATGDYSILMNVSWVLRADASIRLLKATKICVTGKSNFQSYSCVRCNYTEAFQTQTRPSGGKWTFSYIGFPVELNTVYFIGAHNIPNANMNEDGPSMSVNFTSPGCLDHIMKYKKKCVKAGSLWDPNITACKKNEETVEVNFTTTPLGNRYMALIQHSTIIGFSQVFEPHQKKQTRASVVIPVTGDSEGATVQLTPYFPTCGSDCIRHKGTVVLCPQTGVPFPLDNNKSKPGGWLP

For IL-17B (from UniProt Q9UHF5), the Kd (usually a measure of binding affinity in units of concentration) is 7.6 nM.
